{"source": "paper PMC5957299", "key": {"[1]": {"test": "anti-FLAG IP/blot of 293T conditioned media", "conditions": "glycan lost"}, "[2]": {"test": "anti-FLAG IP/blot of media, TM 2 μg/ml 12 h", "conditions": "glycan lost; control: same construct, untreated"}, "[3]": {"test": "Coatest SP4 chromogenic assay, 293T media", "conditions": "control: WT full-length FVIII"}, "[4]": {"test": "chromogenic activity / ELISA antigen ratio in media", "conditions": "control: WT full-length FVIII"}, "[5]": {"test": "FVIII antigen ELISA, 293T cell extracts", "conditions": "control: WT full-length FVIII"}, "[6]": {"test": "FVIII antigen ELISA, 293T conditioned media", "conditions": "control: WT full-length FVIII"}}, "data": [{"substance": "Coagulation factor VIII (FVIII): N2118Q + D2131N", "values": [{"measurement": "expression_or_secretion", "setting": "[1]; control: D2131N C domain", "value": "abolishes"}]}, {"substance": "Coagulation factor VIII (FVIII): TM, WT C domain", "values": [{"measurement": "expression_or_secretion", "setting": "[2]", "value": "decreases"}]}, {"substance": "Coagulation factor VIII (FVIII): N2118Q", "values": [{"measurement": "other: cofactor (coagulant) activity in conditioned media, percent_of_wt", "setting": "[3]; glycan lost", "value": "no change"}, {"measurement": "other: relative (specific) cofactor activity, percent_of_wt", "setting": "[4]; glycan lost", "value": "no change"}, {"measurement": "expression_or_secretion, percent_of_wt", "setting": "[5]; glycan lost", "value": "no change"}, {"measurement": "expression_or_secretion", "setting": "[1]; control: WT C domain", "value": "decreases"}, {"measurement": "expression_or_secretion, percent_of_wt", "setting": "[6]; glycan lost", "value": "no change"}]}, {"substance": "Coagulation factor VIII (FVIII): D2131N", "values": [{"measurement": "other: cofactor (coagulant) activity in conditioned media, percent_of_wt", "setting": "[3]; glycan gained", "value": "decreases"}, {"measurement": "other: relative (specific) cofactor activity, percent_of_wt", "setting": "[4]; glycan gained", "value": "decreases"}, {"measurement": "expression_or_secretion, percent_of_wt", "setting": "[5]; glycan gained", "value": "no change"}, {"measurement": "expression_or_secretion, percent_of_wt", "setting": "[6]; glycan gained", "value": "no change"}]}, {"substance": "Coagulation factor VIII (FVIII): TM, G701S A2 domain", "values": [{"measurement": "expression_or_secretion", "setting": "[2]", "value": "decreases"}]}, {"substance": "Coagulation factor VIII (FVIII): TM, A469S A2 domain", "values": [{"measurement": "expression_or_secretion", "setting": "[2]", "value": "increases"}]}, {"substance": "Coagulation factor VIII (FVIII): TM, A469T A2 domain", "values": [{"measurement": "expression_or_secretion", "setting": "[2]", "value": "increases"}]}, {"substance": "Coagulation factor VIII (FVIII): TM, M614T A2 domain", "values": [{"measurement": "expression_or_secretion", "setting": "[2]", "value": "no change"}]}, {"substance": "Coagulation factor VIII (FVIII): TM, I566T A2 domain", "values": [{"measurement": "expression_or_secretion", "setting": "[2]", "value": "decreases"}]}, {"substance": "Coagulation factor VIII (FVIII): W2062S", "values": [{"measurement": "other: cofactor (coagulant) activity in conditioned media, percent_of_wt", "setting": "[3]; glycan gained", "value": "decreases"}, {"measurement": "other: relative (specific) cofactor activity, percent_of_wt", "setting": "[4]; glycan gained", "value": "decreases"}, {"measurement": "expression_or_secretion, percent_of_wt", "setting": "[5]; glycan gained", "value": "no change"}, {"measurement": "expression_or_secretion, percent_of_wt", "setting": "[6]; glycan gained", "value": "no change"}]}]}
